Values of other authors as cited in paper PMC3460238.
Where two headings read alike, the source gives them in different places.

What was measured:
C3b (Homo sapiens) [1] = target: C3b (Homo sapiens) (UniProt P01024)
C3b (Homo sapiens) [2] = target: C3b (Homo sapiens) (UniProt P01024); remark: listed apart in the source

C3b (Homo sapiens), sequence (P01024 23-667, chain 1 of 2): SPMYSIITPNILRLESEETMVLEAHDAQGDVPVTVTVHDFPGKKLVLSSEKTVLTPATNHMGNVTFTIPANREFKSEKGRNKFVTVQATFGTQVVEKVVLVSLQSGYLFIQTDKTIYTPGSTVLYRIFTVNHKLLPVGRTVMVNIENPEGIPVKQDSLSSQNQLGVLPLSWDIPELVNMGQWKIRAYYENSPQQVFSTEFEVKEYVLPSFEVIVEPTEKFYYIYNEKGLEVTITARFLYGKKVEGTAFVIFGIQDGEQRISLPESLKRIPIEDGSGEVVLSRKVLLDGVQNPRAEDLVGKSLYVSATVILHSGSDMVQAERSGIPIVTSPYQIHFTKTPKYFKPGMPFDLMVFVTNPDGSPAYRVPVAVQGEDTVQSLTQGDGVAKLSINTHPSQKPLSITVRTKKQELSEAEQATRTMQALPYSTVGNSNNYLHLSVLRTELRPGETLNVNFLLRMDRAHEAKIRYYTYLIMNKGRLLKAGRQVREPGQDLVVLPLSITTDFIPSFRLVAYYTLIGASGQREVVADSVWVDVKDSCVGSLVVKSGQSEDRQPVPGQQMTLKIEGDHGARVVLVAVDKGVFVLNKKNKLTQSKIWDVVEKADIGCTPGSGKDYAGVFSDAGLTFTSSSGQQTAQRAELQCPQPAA
C3b (Homo sapiens), sequence (P01024 749-1663, chain 2 of 2): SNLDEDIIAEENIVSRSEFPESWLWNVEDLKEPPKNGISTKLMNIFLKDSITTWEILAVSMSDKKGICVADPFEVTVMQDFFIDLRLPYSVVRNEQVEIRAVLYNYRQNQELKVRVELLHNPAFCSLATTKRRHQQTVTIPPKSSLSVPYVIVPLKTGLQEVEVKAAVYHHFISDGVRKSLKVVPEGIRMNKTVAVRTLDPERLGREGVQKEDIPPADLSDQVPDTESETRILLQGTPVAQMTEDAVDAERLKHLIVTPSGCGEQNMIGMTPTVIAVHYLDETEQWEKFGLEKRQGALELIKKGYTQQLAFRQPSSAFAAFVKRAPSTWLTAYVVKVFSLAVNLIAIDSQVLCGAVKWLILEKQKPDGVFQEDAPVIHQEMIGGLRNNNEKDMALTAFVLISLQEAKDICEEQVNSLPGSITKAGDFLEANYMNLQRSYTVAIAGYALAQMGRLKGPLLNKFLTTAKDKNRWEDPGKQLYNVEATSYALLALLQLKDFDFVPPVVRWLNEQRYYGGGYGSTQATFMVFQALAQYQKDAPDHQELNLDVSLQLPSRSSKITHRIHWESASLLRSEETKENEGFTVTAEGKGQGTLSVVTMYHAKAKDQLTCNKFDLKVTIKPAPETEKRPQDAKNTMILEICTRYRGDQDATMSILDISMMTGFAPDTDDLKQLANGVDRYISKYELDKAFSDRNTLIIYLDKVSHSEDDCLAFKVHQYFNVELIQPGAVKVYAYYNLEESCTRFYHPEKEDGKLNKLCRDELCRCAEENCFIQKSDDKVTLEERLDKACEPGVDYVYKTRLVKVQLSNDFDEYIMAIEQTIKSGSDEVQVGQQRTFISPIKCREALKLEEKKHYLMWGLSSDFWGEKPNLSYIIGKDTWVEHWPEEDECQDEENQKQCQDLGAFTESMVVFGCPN
Factor H (62V), sequence (P08603 19-1231): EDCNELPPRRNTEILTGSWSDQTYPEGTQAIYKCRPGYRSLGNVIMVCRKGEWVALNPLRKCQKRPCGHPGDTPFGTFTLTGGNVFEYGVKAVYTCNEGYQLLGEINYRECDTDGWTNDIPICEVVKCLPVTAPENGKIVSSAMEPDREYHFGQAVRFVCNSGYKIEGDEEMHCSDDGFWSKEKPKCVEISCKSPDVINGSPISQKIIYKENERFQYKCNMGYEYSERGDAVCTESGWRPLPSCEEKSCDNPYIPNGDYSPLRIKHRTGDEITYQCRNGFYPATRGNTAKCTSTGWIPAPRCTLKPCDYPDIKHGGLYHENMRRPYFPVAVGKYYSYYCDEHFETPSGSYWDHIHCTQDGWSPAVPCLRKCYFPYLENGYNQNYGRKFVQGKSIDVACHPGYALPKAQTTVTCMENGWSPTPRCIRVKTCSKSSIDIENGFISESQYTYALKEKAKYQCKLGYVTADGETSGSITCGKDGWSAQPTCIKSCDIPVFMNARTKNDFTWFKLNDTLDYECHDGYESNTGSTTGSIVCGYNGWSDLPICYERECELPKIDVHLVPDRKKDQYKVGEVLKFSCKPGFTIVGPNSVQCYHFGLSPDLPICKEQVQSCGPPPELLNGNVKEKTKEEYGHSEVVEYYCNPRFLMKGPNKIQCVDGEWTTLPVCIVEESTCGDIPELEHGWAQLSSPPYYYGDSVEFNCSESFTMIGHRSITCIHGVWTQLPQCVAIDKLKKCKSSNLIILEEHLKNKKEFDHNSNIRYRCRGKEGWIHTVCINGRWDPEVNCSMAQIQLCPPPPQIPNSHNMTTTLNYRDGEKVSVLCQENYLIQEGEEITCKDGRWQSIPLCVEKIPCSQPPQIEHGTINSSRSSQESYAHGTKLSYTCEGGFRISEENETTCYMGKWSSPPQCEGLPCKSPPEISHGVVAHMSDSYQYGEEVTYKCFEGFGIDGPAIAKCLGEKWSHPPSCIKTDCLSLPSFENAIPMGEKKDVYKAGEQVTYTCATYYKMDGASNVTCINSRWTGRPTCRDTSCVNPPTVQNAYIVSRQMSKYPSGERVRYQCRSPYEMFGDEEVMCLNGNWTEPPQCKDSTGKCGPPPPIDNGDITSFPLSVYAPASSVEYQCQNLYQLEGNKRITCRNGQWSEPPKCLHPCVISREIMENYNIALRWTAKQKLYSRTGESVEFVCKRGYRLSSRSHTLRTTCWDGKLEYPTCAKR

Substance	Kd (C3b (Homo sapiens) [1]) [nM]	Kd (C3b (Homo sapiens) [2]) [nM]
Factor H (62I) (from UniProt P08603)	1000	
Factor H (62V) (from UniProt P08603)		1300
